Reference: patent US20150344570A1 (published 2015)
Positions count from the first letter of the chain named. In names and notes the source's numbering stands.

T1: FcγRIIb (human, UniProt P31994 43-217)
T1 construct: extracellular domain; also called FcgRIIb; 2b; not shown: His tag at the C terminus
T1 sequence (looked up): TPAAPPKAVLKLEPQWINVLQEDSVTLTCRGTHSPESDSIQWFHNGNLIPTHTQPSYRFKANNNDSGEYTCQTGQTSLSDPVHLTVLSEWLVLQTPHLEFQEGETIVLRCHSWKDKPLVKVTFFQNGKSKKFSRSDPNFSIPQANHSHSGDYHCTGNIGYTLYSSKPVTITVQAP

T2: FcγRIIa R (human, UniProt P12318 34-217)
T2 construct: extracellular domain; also called FcgRIIa R type; 2aR; not shown: His tag at the C terminus
T2 sequence (looked up): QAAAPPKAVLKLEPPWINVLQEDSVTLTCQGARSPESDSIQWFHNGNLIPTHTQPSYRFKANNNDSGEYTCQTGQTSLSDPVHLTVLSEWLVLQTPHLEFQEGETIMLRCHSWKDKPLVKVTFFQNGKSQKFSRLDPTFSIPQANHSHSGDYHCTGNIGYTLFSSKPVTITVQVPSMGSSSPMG

T3: FcγRIIa H (FcγRIIa type H, His at position 131), extracellular domain with C-terminal His tag (human, UniProt P12318 34-217)
T3 construct: extracellular domain; also called FcgRIIa H; 2aH
T3 sequence (looked up): T2 sequence (looked up) with R134H

T4: FcγRIIa H (human, UniProt P12318 34-217)
T4 construct: extracellular domain; also called FcgRIIa H; FcγRIIa type H
T4 sequence (looked up): T2 sequence (looked up) with R134H

T5: FcγRIIb (human, UniProt P31994 43-217)
T5 construct: extracellular domain; also called FcgRIIb; 2b
T5 sequence (looked up): T1 sequence (looked up)

B1: GpH7-A5/GpH7-B3 variant A327_01G/GpL16-k0 (antibody, human IgG1, kappa)
heavy 1: not shown
heavy 2: not shown
light: DIVMTQSPLSLPVTPGEPASISCQASESLVHSNRNTYLHWYLQKPGQSPQLLIYKVSNRFSGVPDRFSGSGSGTDFTLKISRVEAEDVGVYYCSQNTHVPPTFGQGTKVEIERTVAAPSVFIFPPSDEQLKSGTASVVCLLNNFYPREAKVQWKVDNALQSGNSQESVTEQDSKDSTYSLSSTLTLSKADYEKHKVYACEVTHQGLSSPVTKSFNRGEC
notes: Heterodimerized anti-glypican-3 IgG1; mutation in the GpH7-B3 chain only; also called He Ab
B2: GpH7-B3 variant I332_02A/GpL16-k0 (antibody, human IgG1, kappa)
heavy: not shown
light: B1 light
notes: both H chains mutated; also called Ho Ab
B3: GpH7-A5/GpH7-B3 variant Y296_20W/GpL16-k0 (antibody, human IgG1, kappa)
heavy 1: not shown
heavy 2: not shown
light: B1 light
notes: Heterodimerized antibody, alteration in one H chain only; also called He Ab Y296W
B4: GpH7-B3 variant H268_13S/GpL16-k0 (antibody, human IgG1, kappa)
heavy: not shown
light: B1 light
notes: as for B2
B5: GpH7-A5/GpH7-B3 variant I332_02A/GpL16-k0 (antibody, human IgG1, kappa)
heavy 1: not shown
heavy 2: not shown
light: B1 light
notes: as for B1
B6: GpH7-A5/GpH7-B3 variant S239_03V/GpL16-k0 (antibody, human IgG1, kappa)
heavy 1: not shown
heavy 2: not shown
light: B1 light
notes: as for B1
B7: GpH7-A5/GpH7-B3 variant Y300_19Q/GpL16-k0 (antibody, human IgG1, kappa)
heavy 1: not shown
heavy 2: not shown
light: B1 light
notes: Heterodimerized antibody, alteration in one H chain only; also called He Ab Y300Q
B8: GpH7-A5/GpH7-B3 variant L328_19Q/GpL16-k0 (antibody, human IgG1, kappa)
heavy 1: not shown
heavy 2: not shown
light: B1 light
notes: as for B1
B9: GpH7-B3 variant H268_09D/GpL16-k0 (antibody, human IgG1, kappa)
heavy: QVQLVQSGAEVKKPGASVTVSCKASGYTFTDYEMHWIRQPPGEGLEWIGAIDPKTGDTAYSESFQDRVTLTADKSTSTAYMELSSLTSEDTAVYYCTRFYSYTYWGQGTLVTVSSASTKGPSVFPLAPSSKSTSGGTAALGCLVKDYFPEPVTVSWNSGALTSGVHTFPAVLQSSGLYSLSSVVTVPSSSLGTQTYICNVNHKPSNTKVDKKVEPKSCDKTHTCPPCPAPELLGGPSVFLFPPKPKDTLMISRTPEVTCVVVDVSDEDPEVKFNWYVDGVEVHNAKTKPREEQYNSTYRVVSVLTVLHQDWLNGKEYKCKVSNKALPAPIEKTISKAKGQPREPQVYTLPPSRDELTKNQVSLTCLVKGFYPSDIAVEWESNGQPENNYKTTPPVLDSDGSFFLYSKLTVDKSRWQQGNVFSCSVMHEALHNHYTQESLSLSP
light: B1 light
notes: as for B2
B10: GpH7-B3 variant K326_06M/GpL16-k0 (antibody, human IgG1, kappa)
heavy: not shown
light: B1 light
notes: as for B2
B11: GpH7-A5/GpH7-B3 variant Y300_19Q/GpL16-k0 (antibody, human IgG1, kappa)
heavy 1: not shown
heavy 2: not shown
light: B1 light
notes: as for B1
B12: GpH7-B3 variant G236_03V/GpL16-k0 (antibody, human IgG1, kappa)
heavy: not shown
light: B1 light
notes: as for B2
B13: GpH7-B3 variant H268_18N/GpL16-k0 (antibody, human IgG1, kappa)
heavy: not shown
light: B1 light
notes: as for B2
B14: GpH7-A5/GpH7-B3 variant S267_07I/GpL16-k0 (antibody, human IgG1, kappa)
heavy 1: not shown
heavy 2: not shown
light: B1 light
notes: Heterodimerized antibody, alteration in one H chain only; also called He Ab S267I
B15: GpH7-A5/GpH7-B3 variant S267_03V/GpL16-k0 (antibody, human IgG1, kappa)
heavy 1: not shown
heavy 2: not shown
light: B1 light
notes: Heterodimerized antibody, alteration in one H chain only; also called He Ab S267V
B16: GpH7-B3 variant I332_19Q/GpL16-k0 (antibody, human IgG1, kappa)
heavy: not shown
light: B1 light
notes: as for B2
B17: GpH7-A5/GpH7-B3 variant S267_08L/GpL16-k0 (antibody, human IgG1, kappa)
heavy 1: not shown
heavy 2: not shown
light: B1 light
notes: Heterodimerized antibody, alteration in one H chain only; also called He Ab S267L
B18: GpH7-A5/GpH7-B3 variant Y300_10E/GpL16-k0 (antibody, human IgG1, kappa)
heavy 1: not shown
heavy 2: not shown
light: B1 light
notes: Heterodimerized antibody, alteration in one H chain only; also called He Ab Y300E
B19: GpH7-B3 variant I332_15Y/GpL16-k0 (antibody, human IgG1, kappa)
heavy: not shown
light: B1 light
notes: as for B2
B20: GpH7-B3 variant I332_16H/GpL16-k0 (antibody, human IgG1, kappa)
heavy: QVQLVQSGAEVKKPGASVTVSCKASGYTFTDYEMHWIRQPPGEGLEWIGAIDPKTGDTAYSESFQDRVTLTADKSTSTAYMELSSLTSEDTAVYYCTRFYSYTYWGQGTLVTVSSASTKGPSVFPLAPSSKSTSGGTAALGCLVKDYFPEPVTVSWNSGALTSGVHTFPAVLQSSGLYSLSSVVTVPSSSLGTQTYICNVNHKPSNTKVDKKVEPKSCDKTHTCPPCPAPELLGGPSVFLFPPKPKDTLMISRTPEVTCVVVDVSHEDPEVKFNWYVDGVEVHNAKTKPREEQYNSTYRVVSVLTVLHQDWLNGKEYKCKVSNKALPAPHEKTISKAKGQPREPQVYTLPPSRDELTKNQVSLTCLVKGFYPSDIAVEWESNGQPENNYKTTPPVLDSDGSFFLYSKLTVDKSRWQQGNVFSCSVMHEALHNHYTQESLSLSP
light: B1 light
notes: as for B2
B21: GpH7-B3 variant G236_07I/GpL16-k0 (antibody, human IgG1, kappa)
heavy: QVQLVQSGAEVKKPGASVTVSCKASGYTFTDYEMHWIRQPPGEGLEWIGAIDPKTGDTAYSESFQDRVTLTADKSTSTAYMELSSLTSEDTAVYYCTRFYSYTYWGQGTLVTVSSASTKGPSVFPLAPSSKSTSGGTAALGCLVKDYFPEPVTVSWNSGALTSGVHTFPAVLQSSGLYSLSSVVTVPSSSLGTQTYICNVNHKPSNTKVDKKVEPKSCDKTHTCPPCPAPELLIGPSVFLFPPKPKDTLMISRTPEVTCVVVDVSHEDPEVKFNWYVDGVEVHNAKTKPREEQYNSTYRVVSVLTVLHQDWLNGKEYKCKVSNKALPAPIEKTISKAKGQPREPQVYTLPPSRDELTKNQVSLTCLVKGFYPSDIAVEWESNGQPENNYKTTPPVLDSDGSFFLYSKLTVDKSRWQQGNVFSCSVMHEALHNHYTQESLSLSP
light: B1 light
notes: as for B2
B22: GpH7-B3 variant I332_18N/GpL16-k0 (antibody, human IgG1, kappa)
heavy: not shown
light: B1 light
notes: as for B2
B23: GpH7-B3 variant A330_12R/GpL16-k0 (antibody, human IgG1, kappa)
heavy: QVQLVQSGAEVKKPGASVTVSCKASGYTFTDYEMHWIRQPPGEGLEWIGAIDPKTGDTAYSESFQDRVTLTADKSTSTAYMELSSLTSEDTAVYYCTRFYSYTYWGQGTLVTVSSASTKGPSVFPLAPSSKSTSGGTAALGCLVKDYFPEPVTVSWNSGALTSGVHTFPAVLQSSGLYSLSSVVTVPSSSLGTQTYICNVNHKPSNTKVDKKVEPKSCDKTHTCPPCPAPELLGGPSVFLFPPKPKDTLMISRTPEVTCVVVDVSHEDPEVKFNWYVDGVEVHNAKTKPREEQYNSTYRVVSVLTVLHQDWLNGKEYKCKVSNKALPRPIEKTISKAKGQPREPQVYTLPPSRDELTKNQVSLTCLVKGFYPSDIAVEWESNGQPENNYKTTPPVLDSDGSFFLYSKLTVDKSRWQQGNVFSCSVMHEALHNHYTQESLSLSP
light: B1 light
notes: as for B2
B24: GpH7-B3 variant I332_10E/GpL16-k0 (antibody, human IgG1, kappa)
heavy: not shown
light: B1 light
notes: as for B2
B25: GpH7-B3 variant I332_14T/GpL16-k0 (antibody, human IgG1, kappa)
heavy: not shown
light: B1 light
notes: as for B2
B26: GpH7-B3 variant I336_08L/GpL16-k0 (antibody, human IgG1, kappa)
heavy: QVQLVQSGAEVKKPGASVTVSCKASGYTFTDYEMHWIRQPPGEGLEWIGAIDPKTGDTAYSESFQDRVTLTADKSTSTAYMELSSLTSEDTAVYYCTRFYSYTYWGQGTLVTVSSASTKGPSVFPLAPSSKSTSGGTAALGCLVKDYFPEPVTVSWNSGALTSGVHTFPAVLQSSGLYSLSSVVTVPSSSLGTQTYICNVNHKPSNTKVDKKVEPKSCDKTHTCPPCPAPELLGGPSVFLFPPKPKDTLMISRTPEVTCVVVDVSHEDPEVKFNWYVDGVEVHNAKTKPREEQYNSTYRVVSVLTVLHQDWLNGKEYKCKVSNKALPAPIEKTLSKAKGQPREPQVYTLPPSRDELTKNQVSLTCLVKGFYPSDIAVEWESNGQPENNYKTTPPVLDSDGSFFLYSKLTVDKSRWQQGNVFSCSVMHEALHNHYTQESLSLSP
light: B1 light
notes: as for B2
B27: GpH7-B3 variant I336_06M/GpL16-k0 (antibody, human IgG1, kappa)
heavy: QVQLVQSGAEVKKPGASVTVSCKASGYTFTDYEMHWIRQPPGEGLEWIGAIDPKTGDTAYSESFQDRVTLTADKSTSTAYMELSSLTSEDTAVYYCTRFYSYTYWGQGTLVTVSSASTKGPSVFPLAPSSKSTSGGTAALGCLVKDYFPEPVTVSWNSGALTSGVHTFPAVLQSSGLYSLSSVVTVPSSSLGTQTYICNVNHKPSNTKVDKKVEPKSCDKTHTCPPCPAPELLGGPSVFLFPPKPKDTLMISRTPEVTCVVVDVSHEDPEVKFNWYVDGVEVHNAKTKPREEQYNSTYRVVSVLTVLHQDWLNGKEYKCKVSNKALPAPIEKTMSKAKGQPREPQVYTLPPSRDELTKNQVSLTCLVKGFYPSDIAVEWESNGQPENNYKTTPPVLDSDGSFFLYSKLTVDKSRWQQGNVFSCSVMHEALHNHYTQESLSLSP
light: B1 light
notes: as for B2
B28: GpH7-B3 variant H268_10E/GpL16-k0 (antibody, human IgG1, kappa)
heavy: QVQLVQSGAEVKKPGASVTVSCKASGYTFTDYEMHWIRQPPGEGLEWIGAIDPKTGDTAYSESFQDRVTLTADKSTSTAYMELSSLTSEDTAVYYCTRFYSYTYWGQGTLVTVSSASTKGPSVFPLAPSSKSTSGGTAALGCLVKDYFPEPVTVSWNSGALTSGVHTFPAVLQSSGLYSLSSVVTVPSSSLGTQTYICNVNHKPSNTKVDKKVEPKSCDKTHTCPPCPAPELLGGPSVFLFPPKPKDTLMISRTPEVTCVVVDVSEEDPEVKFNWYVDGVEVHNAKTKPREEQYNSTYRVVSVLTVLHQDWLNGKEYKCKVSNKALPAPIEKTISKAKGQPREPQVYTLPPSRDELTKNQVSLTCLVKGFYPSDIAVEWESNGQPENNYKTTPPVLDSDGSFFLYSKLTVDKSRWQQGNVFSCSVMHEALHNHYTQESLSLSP
light: B1 light
notes: as for B2
B29: GpH7-B3 variant I332_06M/GpL16-k0 (antibody, human IgG1, kappa)
heavy: not shown
light: B1 light
notes: as for B2
B30: GpH7-B3 variant I332_03V/GpL16-k0 (antibody, human IgG1, kappa)
heavy: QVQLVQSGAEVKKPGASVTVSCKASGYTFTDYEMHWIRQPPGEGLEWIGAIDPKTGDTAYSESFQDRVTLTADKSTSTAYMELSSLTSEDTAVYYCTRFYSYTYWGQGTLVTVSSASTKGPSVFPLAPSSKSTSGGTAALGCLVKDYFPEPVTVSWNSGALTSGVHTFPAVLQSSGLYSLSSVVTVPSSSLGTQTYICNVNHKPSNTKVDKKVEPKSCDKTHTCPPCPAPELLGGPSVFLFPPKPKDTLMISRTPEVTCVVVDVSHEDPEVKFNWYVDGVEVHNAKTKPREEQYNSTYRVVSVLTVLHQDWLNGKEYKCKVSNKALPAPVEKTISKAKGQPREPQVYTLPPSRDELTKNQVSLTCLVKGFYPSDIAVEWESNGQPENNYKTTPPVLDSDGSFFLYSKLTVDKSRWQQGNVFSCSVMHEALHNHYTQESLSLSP
light: B1 light
notes: as for B2
B31: GpH7-A5/GpH7-B3 variant S267_06M/GpL16-k0 (antibody, human IgG1, kappa)
heavy 1: not shown
heavy 2: not shown
light: B1 light
notes: Heterodimerized antibody, alteration in one H chain only; also called He Ab S267M
B32: GpH7-B3 variant G236_10E/GpL16-k0 (antibody, human IgG1, kappa)
heavy: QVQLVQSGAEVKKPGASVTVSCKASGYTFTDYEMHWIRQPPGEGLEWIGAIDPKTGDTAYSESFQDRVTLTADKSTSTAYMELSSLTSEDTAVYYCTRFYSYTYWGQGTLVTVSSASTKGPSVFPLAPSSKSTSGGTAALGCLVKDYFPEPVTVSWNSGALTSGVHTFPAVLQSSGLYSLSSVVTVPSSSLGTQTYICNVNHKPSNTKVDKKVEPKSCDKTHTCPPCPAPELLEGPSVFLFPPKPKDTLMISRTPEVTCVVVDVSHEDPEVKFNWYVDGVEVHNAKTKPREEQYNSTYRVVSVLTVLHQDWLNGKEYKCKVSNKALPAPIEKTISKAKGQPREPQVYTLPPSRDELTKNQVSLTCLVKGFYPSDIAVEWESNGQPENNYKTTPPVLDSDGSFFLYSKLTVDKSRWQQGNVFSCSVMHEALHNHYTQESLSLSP
light: B1 light
notes: as for B2
B33: GpH7-B3 variant I332_13S/GpL16-k0 (antibody, human IgG1, kappa)
heavy: not shown
light: B1 light
notes: as for B2
B34: GpH7-A5/GpH7-B3 variant V266_06M/GpL16-k0 (antibody, human IgG1, kappa)
heavy 1: not shown
heavy 2: not shown
light: B1 light
notes: Heterodimerized antibody, alteration in one H chain only; also called He Ab V266M
B35: GpH7-B3 variant I332_09D/GpL16-k0 (antibody, human IgG1, kappa)
heavy: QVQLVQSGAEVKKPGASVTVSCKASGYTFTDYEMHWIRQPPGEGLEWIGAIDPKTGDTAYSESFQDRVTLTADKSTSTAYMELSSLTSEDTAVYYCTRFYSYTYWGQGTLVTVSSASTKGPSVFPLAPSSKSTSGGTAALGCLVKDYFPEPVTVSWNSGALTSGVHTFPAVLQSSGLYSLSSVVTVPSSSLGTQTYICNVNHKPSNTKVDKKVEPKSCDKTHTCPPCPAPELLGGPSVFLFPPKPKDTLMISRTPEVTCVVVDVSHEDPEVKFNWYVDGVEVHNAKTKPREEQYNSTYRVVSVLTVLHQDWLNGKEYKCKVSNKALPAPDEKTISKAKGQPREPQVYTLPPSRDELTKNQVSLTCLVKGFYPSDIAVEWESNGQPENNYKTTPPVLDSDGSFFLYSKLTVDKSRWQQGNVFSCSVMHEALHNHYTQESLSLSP
light: B1 light
notes: as for B2
B36: GpH7-A5/GpH7-B3 variant S267_19Q/GpL16-k0 (antibody, human IgG1, kappa)
heavy 1: not shown
heavy 2: not shown
light: B1 light
notes: Heterodimerized antibody, alteration in one H chain only; also called He Ab S267Q
B37: GpH7-A5/GpH7-B3 variant S267_14T/GpL16-k0 (antibody, human IgG1, kappa)
heavy 1: not shown
heavy 2: not shown
light: B1 light
notes: Heterodimerized antibody, alteration in one H chain only; also called He Ab S267T
B38: GpH7-A5/GpH7-B3 variant S298_08L/GpL16-k0 (antibody, human IgG1, kappa)
heavy 1: not shown
heavy 2: not shown
light: B1 light
notes: Heterodimerized antibody, alteration in one H chain only; also called He Ab S298L
B39: GpH7-A5/GpH7-B3 variant S298_06M/GpL16-k0 (antibody, human IgG1, kappa)
heavy 1: not shown
heavy 2: not shown
light: B1 light
notes: Heterodimerized antibody, alteration in one H chain only; also called He Ab S298M
B40: GpH7-B3 variant I332_04F/GpL16-k0 (antibody, human IgG1, kappa)
heavy: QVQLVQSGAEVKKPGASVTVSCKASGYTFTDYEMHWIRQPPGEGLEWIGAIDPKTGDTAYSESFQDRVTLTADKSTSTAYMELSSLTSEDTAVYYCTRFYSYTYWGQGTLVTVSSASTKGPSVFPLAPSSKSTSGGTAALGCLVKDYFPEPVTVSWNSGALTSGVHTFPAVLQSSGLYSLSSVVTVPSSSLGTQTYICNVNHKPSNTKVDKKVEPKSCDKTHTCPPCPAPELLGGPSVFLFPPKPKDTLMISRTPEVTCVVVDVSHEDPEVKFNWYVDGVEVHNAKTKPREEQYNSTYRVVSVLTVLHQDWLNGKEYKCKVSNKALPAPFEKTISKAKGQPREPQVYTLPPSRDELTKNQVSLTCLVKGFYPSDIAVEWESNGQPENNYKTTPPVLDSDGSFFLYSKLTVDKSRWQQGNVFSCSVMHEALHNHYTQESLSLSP
light: B1 light
notes: as for B2

What was measured:
[1] = target: T1, FcγRIIb; experiment: SPR, relative to GpH7-A5/GpH7-B3/GpL16-k0
[2] = target: T2, FcγRIIa R; experiment: SPR, relative to GpH7-A5/GpH7-B3/GpL16-k0
[3] = target: T3, FcγRIIa H (FcγRIIa type H, His at …); experiment: SPR Biacore, relative binding, GpH7-B3/GpL16-k0 (HoCon Ab)=100
Procedure: Analysis of interaction between objective antibody and the FcγR was carried out using Biacore T100 (GE Healthcare). HBS-EP+ (GE Healthcare) was used as the running buffer, and the measurement temperature was set to 25° C. Chips produced by immobilizing the antigen peptide by the amine coupling method to a Series S Sencor Chip CM5 (GE Healthcare), or alternatively, chips produced by allowing preliminarily biotinylated antigen peptides to interact with and immobilize onto a Series S Sensor Chip SA (certified) (GE Healthcare) were used. Antibodies of interest were captured onto an antigen peptide-immobilized chip, and allowed to interact to each FcγR diluted with running buffer. To regenerate and repeatedly use the chip, the antibodies captured on the chip were washed off by reacting 10 mM glycine-HCl, pH 1.5.

[4] = target: T4, FcγRIIa H; experiment: SPR (Biacore), antibody captured, FcγR analyte; binding relative to GpH7-A5/GpH7-B3/GpL16-k0 = 100
[5] = target: T5, FcγRIIb; experiment: as above

Row | Binder | Ho/Con_2aH [3] | He/Con_2aH [4] | He/Con_2b [5] | further results
1 | B1 |  |  |  | He/Con_2b [1]: 116 control = 100; He/Con_2aR [2]: 98.2 control = 100
2 | B2 | 119 % of control |  |  | 
3 | B3 |  | 97.6 % of control | 103 % of control | 
4 | B4 | 114 % of control |  |  | 
5 | B5 |  |  |  | He/Con_2b [1]: 103 control = 100; He/Con_2aR [2]: 97.6 control = 100
6 | B6 |  |  |  | He/Con_2b [1]: 108 control = 100; He/Con_2aR [2]: 99.9 control = 100
7 | B7 |  | 96.1 % of control | 108 % of control | 
8 | B8 |  |  |  | He/Con_2b [1]: 105 control = 100; He/Con_2aR [2]: 89.3 control = 100
9 | B9 | 136 % of control |  |  | 
10 | B10 | 101 % of control |  |  | 
11 | B11 |  |  |  | He/Con_2b [1]: 108 control = 100; He/Con_2aR [2]: 99.7 control = 100
12 | B12 | 111 % of control |  |  | 
13 | B13 | 110 % of control |  |  | 
14 | B14 |  | 34.7 % of control | 192 % of control | 
15 | B15 |  | 50.8 % of control | 192 % of control | 
16 | B16 | 114 % of control |  |  | 
17 | B17 |  | 29 % of control | 109 % of control | 
18 | B18 |  | 97.2 % of control | 134 % of control | 
19 | B19 | 126 % of control |  |  | 
20 | B20 | 119 % of control |  |  | 

Row | Binder | Ho/Con_2aH [3] | He/Con_2aH [4] | He/Con_2b [5] | further results
21 | B21 | 101 % of control |  |  | 
22 | B22 | 118 % of control |  |  | 
23 | B23 | 110 % of control |  |  | 
24 | B24 | 117 % of control |  |  | 
25 | B25 | 125 % of control |  |  | 
26 | B26 | 101 % of control |  |  | 
27 | B27 | 100 % of control |  |  | 
28 | B28 | 126 % of control |  |  | 
29 | B29 | 114 % of control |  |  | 
30 | B30 | 106 % of control |  |  | 
31 | B31 |  | 34.3 % of control | 210 % of control | 
32 | B32 | 122 % of control |  |  | 
33 | B33 | 121 % of control |  |  | 
34 | B34 |  | 83.9 % of control | 251 % of control | 
35 | B35 | 130 % of control |  |  | 
36 | B36 |  | 61.3 % of control | 218 % of control | 
37 | B37 |  | 63.3 % of control | 104 % of control | 
38 | B38 |  | 85 % of control | 108 % of control | 
39 | B39 |  | 98.1 % of control | 102 % of control | 
40 | B40 | 111 % of control |  |  | 
